Experiment [1] has as its target T1, Human PSMA on prostate cancer cell lines (C4-2B, 22RV1) (human, UniProt Q04609 1-750).
T1 construct: Endogenous PSMA of the human cell lines; also called PSMA+ cells; PSMA-expressing cell lines
Kind of experiment: flow cytometry on C4-2B cells. As for the experimental part:
(§1) Selected anti-PSMA antibodies were evaluated for binding to commercial prostate cancer cell lines. C4-2B cells were originally developed at MD Anderson and are derived from LNCaP FGC grown in vivo and metastasize to bone marrow (Thalmann, et al 1994, Cancer Research 54, 2577-81). 22Rv1 cells are a human prostate carcinoma epithelial cell line derived from a xenograft that was serially propagated in mice after castration-induced regression and relapse of the parental, androgen-dependent CWR22 xenograft. 22RV1 and C4-2B cells were plated at 50,000 cells per well in 50 μl of assay medium (RPMI, 10% HI FBS) in V bottom plates. Serial dilutions of antibodies were prepared in assay medium with 50 μl of antibody dilutions added to the plates containing cells. The plates were incubated for 60 min at 37° C. at which time 100 μl of staining buffer (Becton Dickinson Cat #554657) was added to all wells of each plate. The plates were centrifuged at 300×G for 5 minutes and the medium was removed from the wells. 200 μl of staining buffer was added to all wells of each plate. The plates were centrifuged at 300×G for 5 minutes and the medium was removed from the wells. 50 μl of 2 μg/ml AlexaFluor647-labeled goat anti-human Fc was added to all wells of the plates and the plates were incubated for 30 minutes at 4° C. 150 μl of staining buffer was added to all wells of each plate. The plates were centrifuged at 300×G for 5 minutes and the medium was removed from the wells.

Experiment [2] addresses T2, Avi-6xHis-GS-cyno PSMA ECD (PSMW1) (Macaca fascicularis, UniProt Q04609 48-750 (human entry)).
T2 construct: also called PSMW1.009; cy PSMA
T2 chain: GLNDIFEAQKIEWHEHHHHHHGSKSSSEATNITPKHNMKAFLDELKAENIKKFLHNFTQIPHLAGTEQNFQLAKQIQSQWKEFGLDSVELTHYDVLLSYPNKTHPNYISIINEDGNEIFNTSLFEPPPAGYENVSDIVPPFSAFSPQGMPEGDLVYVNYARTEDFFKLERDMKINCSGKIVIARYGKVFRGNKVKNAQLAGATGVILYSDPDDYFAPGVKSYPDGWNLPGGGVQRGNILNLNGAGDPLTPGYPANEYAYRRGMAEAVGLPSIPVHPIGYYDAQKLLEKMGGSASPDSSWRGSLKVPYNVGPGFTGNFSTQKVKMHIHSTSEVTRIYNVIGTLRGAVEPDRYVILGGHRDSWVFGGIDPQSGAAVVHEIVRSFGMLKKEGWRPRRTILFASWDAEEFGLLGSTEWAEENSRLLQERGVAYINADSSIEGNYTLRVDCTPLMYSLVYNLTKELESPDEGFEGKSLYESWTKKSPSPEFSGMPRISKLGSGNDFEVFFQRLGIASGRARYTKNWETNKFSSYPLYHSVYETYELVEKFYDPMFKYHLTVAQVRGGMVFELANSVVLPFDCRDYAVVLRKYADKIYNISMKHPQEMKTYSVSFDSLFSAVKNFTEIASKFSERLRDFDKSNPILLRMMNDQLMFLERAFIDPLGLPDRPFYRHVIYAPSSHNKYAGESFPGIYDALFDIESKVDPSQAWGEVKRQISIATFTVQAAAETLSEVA
Kind of experiment: SPR Biacore 8K, mAb captured by anti-Fc, antigen in solution. As for the experimental part: (§2) The association and dissociation were monitored for 3 and 15 minutes, respectively, using a flow rate of 50 μL/min. Raw binding data was referenced by subtracting the analyte binding signals from blanks and analyzed using a 1:1 Langmuir binding model using the Biacore Insight evaluation software to obtain the kinetics, which were used to calculate the binding affinity. The anti-PSMA were captured using an anti-human Fc antibody and the antigens were injected in solution.

The target in experiment [3] is T3, Human PSMA ECD (Lys44-Ala750), N-6xHis (PSMW39) (human, UniProt Q04609 44-750).
T3 construct: also called PSMW39.002; hu PSMA
T3 sequence (Q04609 other isoform, or with tags, fused parts or gaps): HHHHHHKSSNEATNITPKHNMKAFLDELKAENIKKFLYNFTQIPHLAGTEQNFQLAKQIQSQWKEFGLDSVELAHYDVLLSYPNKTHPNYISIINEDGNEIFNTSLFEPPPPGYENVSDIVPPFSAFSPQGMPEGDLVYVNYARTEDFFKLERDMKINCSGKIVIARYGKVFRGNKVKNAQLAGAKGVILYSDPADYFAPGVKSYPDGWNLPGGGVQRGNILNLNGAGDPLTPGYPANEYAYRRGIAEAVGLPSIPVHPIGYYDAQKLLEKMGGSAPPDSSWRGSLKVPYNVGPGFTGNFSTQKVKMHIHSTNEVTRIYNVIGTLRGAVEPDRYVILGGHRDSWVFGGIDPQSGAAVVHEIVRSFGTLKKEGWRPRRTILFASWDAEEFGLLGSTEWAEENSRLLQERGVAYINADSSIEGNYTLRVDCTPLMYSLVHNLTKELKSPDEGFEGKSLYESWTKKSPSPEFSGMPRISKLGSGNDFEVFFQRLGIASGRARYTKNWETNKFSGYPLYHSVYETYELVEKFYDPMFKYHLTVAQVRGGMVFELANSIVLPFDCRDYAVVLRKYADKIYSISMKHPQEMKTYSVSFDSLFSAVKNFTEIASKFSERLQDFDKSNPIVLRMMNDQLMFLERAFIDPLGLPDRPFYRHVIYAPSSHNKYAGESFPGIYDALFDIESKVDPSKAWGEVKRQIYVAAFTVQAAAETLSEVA
The experiment is described as above. As for the experimental part: as §2

Experiment [4] addresses T1, Human PSMA on prostate cancer cell …. As to the kind of experiment: flow cytometry on 22RV1 cells. As for the experimental part: as §1
The target in experiment [5] is Avi-6xHis-GS-mouse PSMA (45-752) (PSMW29) (Mus musculus, UniProt O35409 45-752). Kind of experiment: SPR Biacore 8K, mAb captured by anti-Fc, antigen in solution. As for the experimental part: as §2
Experiment [6] has as its target T1, Human PSMA on prostate cancer cell …. As to the kind of experiment: flow cytometry on 22RV1 cells; 22RV1 cells.
For experiment [7] the target is unchanged. Kind of experiment: binding curves on C4-2B cells, 37 C, 1 h incubation, four-parameter fit. As for the experimental part:
Molecule concentrations ranged from 500-0 nM over 12-points at 3-fold dilution. […] Values reported in the Table 32 were generated by fitting the data to a four-parameter function for ligand binding generating values for y-min, y-max, EC50, and Hill. EC90 were calculated using the equation EC90=(90[…](100−90))\hat{ }(1/Hill)*EC50.

T1 sequence (Q04609 whole entry): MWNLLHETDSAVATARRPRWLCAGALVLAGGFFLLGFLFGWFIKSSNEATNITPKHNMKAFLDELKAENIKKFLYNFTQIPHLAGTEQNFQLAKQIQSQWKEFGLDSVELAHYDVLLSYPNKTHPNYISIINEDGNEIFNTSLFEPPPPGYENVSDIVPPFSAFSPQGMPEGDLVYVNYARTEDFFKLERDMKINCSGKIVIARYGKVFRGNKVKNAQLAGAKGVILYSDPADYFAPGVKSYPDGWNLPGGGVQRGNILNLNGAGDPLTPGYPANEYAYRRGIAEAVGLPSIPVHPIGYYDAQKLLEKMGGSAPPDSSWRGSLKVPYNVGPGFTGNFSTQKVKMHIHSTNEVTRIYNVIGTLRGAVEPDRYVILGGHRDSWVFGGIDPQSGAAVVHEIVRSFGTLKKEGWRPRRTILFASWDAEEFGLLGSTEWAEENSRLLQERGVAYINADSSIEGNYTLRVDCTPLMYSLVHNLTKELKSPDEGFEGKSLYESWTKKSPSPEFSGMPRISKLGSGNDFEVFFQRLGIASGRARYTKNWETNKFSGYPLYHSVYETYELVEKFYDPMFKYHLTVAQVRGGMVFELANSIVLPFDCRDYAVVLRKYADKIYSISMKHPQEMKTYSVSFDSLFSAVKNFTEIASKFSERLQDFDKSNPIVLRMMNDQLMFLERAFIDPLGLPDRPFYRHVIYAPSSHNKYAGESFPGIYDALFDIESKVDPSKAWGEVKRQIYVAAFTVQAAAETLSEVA

B1: PSMB891 (antibody, human IgG1, lambda, L234A L235A, V domains shown)
VH: EVQLVESGGGVVQPGRSLRLSCAASGFTFITYGMHWVRQAPGKGLEWVAVVSFDESNKYYADSVKGRFTISRDNSKNTLYLQMNSLRAEDTAVYYCARALRDGNNWDYFNGMDVWGQGTTVTVSS
VL: not shown
With B1, the EC50 is 1.99 nM in experiment [1] and 0.554 nM in experiment [4]. Besides, the Kd in experiment [2] is not above 0.21 nM; in experiment [3], not above 0.253 nM.

B2: PSMB892 (antibody, human IgG1, lambda, L234A L235A, V domains shown)
VH: EVQLVESGGGVVQPGRSLRLSCAASGFTFITYGMHWVRQAPGKGLEWVAVVSFDESNKYYADSVKGRFTISRDNSKNTLYLQMNSLRAEDTAVYYCARALRDGNNWDYFNGMDVWGQGTTVTVSS
VL: QSVLTQPPSVSGAPGQRVTISCTGSSSNIGADYDVHWYQHLPGTAPKLLIYGNSNRPSGVPDRFSGSKSGTSASLAITGLQAEDETDYYCQSYDSSLSGWVFGGGTKLTVLG
Consider B2, for which the EC50 in experiment [1] is 22.4 nM; in experiment [6], more than 60 nM. Further, the results for the Kd in experiment [2], in experiment [3] and in experiment [5] were 5.67 nM, 3.22 nM and 0.404 nM, respectively.

B3: PSMB1069 (bispecific antibody, human IgG1, kappa, L234A L235A)
heavy: not shown
light: not shown
chain: QVQLVESGGGEVQPGRSLRLSCAASGFSFSGYGMHWVRQAPGKGLEWVAVMSYDGSNRFYVDSVRGRFSISRDNSKNTLYLQMNSLRPEDTAVYYCARDTVWGSHPDAFDIWGQGTVVTVSSGGSEGKSSGSGSESKSTGGSQSVLTQPPSVSVAPGQTARITCGGNNSGSKSVHWYQQKPGQAPVLVVYDDSDRPSGIPERFSGSNSGNTATLTISRVEAGDEADYYCQVWDSSSDHGVFGGGTKLTVLEPKSSDKTHTCPPCPAPEAAGGPSVFLFPPKPKDTLMISRTPEVTCVVVSVSHEDPEVKFNWYVDGVEVHNAKTKPREEQYNSTYRVVSVLTVLHQDWLNGKEYKCKVSNKALPAPIEKTISKAKGQPREPQVYVLPPSREEMTKNQVSLLCLVKGFYPSDIAVEWESNGQPENNYLTWPPVLDSDGSFFLYSKLTVDKSRWQQGNVFSCSVMHEALHNHYTQKSLSLSPG
notes: Null CD3 arm; one PSMA scFv; also called HC1 (ZWA): B23B62-Fab
In the case of B3, the “fold binding signal (Y-max) over the average of the molecules” value in experiment [7] came to 2 fold.

B4: PSMB896 (antibody, human IgG1, lambda, L234A L235A, V domains shown)
VH: EVQLVESGGGLVQPGGSLRLSCAASGFTFSSYAMSWVRQAPGKGLEWVSAISGGIGSTYYADSVKGRFTISRDNSKNTLWLQMNSLRAEDTAVYYCAKDGVGATPYYFDYWGQGTLVTVSS
VL: QSVLTQPPSVSAAPGQKVTISCSGSSSNIGINYVSWYQQLPGTAPKLLIYDNNKRPSGIPDRFSGSKSGTSATLGITGLQTGDEADYYCGTWDSSLSAVVFGGGTKLTVLG
For B4, the EC50 in experiment [1] is 25.8 nM; in experiment [4], 1.24 nM. Moreover, the figures for the Kd in experiment [2], in experiment [3] and in experiment [5] were 0.658 nM, not above 0.0876 nM and 1.36 nM, respectively.

B5: PSMB899 (antibody, human IgG1, lambda, L234A L235A, V domains shown)
VH: EVQLVESGGGLVQPGGSLRLSCTASGFIFSSYAMSWVRQAPGKGLEWVSAISGGYGAPYYADTVKGRFTISRDNSKNTLYLQMNSLRAEDTAVYYCAKDGVGATPYYFDDWGQGILVTVSS
VL: QSVLTQPPSVSAAPGQKVTISCSGSSSNIGNNYVSWYQQLPGTAPKLLIFDNNKRPSGIPDRFSGSKSGTSATLGITGLQTGDEADYYCGTWDSSLSAYVFGTGTKVTVLG
For the molecule B5, the EC50 in experiment [1] turned out to be 5.58 nM; in experiment [4] it was 1.02 nM. Also, the results for the Kd in experiment [2] and in experiment [3] were 1.47 nM and 0.132 nM, respectively.

For the origin of these results see patent US20240059789A1 (Janssen / Centocor, published 2024).
